Measurements published in patent US20220017622A1 (Pfizer, published 2022).

Tests used:
[1] = biological target: T1, human CD3 (delta/epsilon heterodimer) (human, UniProt P07766 23-126; P04234 22-105); test: SPR 25 C; CD3 delta/epsilon on anti-His chip, bispecific analyte
T1 construct: captured on an anti-His chip, so it carries a His tag; also called huCD3

[2] = biological target: T2, cyno CD3 (delta/epsilon heterodimer) (cyno, UniProt Q95LI5 22-117; Q95LI8 22-105); test: as above
T2 construct: also called cyCD3
T2 sequence (Q95LI5 22-117, stated change not applied, chain 1 of 2): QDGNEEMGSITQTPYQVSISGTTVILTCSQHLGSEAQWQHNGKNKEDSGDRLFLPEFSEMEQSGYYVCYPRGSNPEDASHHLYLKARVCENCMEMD
T2 sequence (Q95LI8 22-105, stated change not applied, chain 2 of 2): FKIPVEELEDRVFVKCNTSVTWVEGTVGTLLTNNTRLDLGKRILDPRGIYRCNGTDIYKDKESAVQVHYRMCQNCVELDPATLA

human B7-H4 on cells = biological target: T3, human B7-H4 on cells (human, UniProt Q7Z7D3 25-282); test: cell-based or functional assay
T3 sequence (looked up): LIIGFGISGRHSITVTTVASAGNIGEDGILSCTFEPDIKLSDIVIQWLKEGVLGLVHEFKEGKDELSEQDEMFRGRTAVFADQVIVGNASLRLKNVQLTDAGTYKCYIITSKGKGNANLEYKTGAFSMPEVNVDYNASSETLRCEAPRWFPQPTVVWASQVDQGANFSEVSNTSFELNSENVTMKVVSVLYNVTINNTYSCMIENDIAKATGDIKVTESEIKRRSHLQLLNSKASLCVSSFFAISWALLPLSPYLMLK

[3] = biological target: T1, human CD3 (delta/epsilon heterodimer); test: SPR 37 C; CD3 delta/epsilon on anti-His chip, bispecific analyte
[4] = biological target: T2, cyno CD3 (delta/epsilon heterodimer); test: as above
[5] = biological target: T4, human B7-H4 extracellular domain (human, UniProt Q7Z7D3 29-258); test: competition ELISA on coated huB7-H4 ECD; competitor biotinylated 0058 (by series, not given)
T4 construct: For SPR it says only human B7-H4 ECD; also called Hu B7-H4 ECD; huB7-H4 ECD
T4 sequence: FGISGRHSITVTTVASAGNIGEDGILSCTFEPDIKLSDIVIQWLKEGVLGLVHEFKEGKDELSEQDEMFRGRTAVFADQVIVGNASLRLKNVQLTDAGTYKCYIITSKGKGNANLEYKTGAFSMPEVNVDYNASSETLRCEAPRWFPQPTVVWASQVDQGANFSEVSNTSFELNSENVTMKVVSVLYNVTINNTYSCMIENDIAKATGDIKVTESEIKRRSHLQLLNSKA

T1 sequence (P07766 23-126, stated change not applied, chain 1 of 2): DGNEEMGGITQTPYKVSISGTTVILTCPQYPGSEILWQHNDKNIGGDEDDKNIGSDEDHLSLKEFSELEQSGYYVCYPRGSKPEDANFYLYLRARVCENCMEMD
T1 sequence (P04234 22-105, stated change not applied, chain 2 of 2): as the sequence (Q95LI8 22-105, stated change not applied, chain 2 of 2) above, with V5I, K15N, V20I, T32S, N33D, N34I, A64T, N74S, L83V counted along it

B1: B7-H4xCD3 bispecific antibody 0077 (bispecific antibody)
heavy 1: QVQLQQWGAGLLKPSETLSLTCALYGGSFSGYYWNWIRQPPGKGLEWIGEINHSGSANYNPSLKSRVTISVDTSKNQFSLRLSSVTAADTAVYYCARGLYNWNVDRWGQGTLVTVSSASTKGPSVFPLAPCSRSTSESTAALGCLVKDYFPEPVTVSWNSGALTSGVHTFPAVLQSSGLYSLSSVVTVPSSNFGTQTYTCNVDHKPSNTKVDKTVERKCEVECPECPAPPVAGPSVFLFPPKPKDTLMISRTPEVTCVVVAVSHEDPEVQFNWYVDGVEVHNAKTKPREEQFNSTFRVVSVLTVVHQDWLNGKEYKCKVSNKGLPSSIEKTISKTKGQPREPQVYTLPPSREEMTKNQVSLTCEVKGFYPSDIAVEWESNGQPENNYKTTPPMLDSDGSFFLYSKLTVDKSRWQQGNVFSCSVMHEALHNHYTQKSLSLSPGK
light 1: not shown
heavy 2: EVQLVESGGGLVQPGGSLRLSCAASGFTFSDYYMTWVRQAPGKGLEWVAFIRNQARGYTSDHNPSVKGRFTISRDNAKNSLYLQMNSLRAEDTAVYYCARDRPSYYVLDYWGQGTTVTVSSASTKGPSVFPLAPCSRSTSESTAALGCLVKDYFPEPVTVSWNSGALTSGVHTFPAVLQSSGLYSLSSVVTVPSSNFGTQTYTCNVDHKPSNTKVDKTVERKCRVRCPRCPAPPVAGPSVFLFPPKPKDTLMISRTPEVTCVVVAVSHEDPEVQFNWYVDGVEVHNAKTKPREEQFNSTFRVVSVLTVVHQDWLNGKEYKCKVSNKGLPSSIEKTISKTKGQPREPQVYTLPPSREEMTKNQVSLTCLVKGFYPSDIAVEWESNGQPENNYKTTPPMLDSDGSFFLYSRLTVDKSRWQQGNVFSCSVMHEALHNHYTQKSLSLSPGK
light 2: DIQMTQSPSSLSASVGDRVTITCTSSQSLFNVRSQKNYLAWYQQKPGKAPKLLIYWASTRESGVPSRFSGSGSGTDFTLTISSLQPEDFATYYCKQSYDLFTFGGGTKVEIKRTVAAPSVFIFPPSDEQLKSGTASVVCLLNNFYPREAKVQWKVDNALQSGNSQESVTEQDSKDSTYSLSSTLTLSKADYEKHKVYACEVTHQGLSSPVTKSFNRGEC
notes: also called anti-B7-H4 clone 19D3
Kd [1]: 12.7 nM
koff [1]: 0.00536 s⁻¹
kon [1]: 423000 M⁻¹ s⁻¹
Kd [2]: 13.7 nM
koff [2]: 0.00504 s⁻¹
kon [2]: 369000 M⁻¹ s⁻¹
T cell mediated tumor cell killing EC50, HCC1954-Luc (human B7-H4 on cells): 93 nM

B2: B7-H4xCD3 bispecific antibody 0068 (bispecific antibody, IgG2)
heavy 1: EVQLLESGGGLVQPGGSLRLSCAASGFTFSSYAMSWVRQAPGKGLEWVSAISGGGGSTYYADSVKGRFTISRDNSKNTLYLQMNSLRAEDTAVYYCARDIQWFGESTLFDYWGQGTLVTVSSASTKGPSVFPLAPCSRSTSESTAALGCLVKDYFPEPVTVSWNSGALTSGVHTFPAVLQSSGLYSLSSVVTVPSSNFGTQTYTCNVDHKPSNTKVDKTVERKCEVECPECPAPPVAGPSVFLFPPKPKDTLMISRTPEVTCVVVAVSHEDPEVQFNWYVDGVEVHNAKTKPREEQFNSTFRVVSVLTVVHQDWLNGKEYKCKVSNKGLPSSIEKTISKTKGQPREPQVYTLPPSREEMTKNQVSLTCEVKGFYPSDIAVEWESNGQPENNYKTTPPMLDSDGSFFLYSKLTVDKSRWQQGNVFSCSVMHEALHNHYTQKSLSLSPGK
light 1: DIQLTQSPSTLSASVGDRVTITCRASQSIRSWLAWFQQKPGKAPKLLIYKASSLEGGVPSRFSGSGSGTEFTLTISSLQPDDFATYYCQQYNSYSRTFGQGTKVEIKRTVAAPSVFIFPPSDEQLKSGTASVVCLLNNFYPREAKVQWKVDNALQSGNSQESVTEQDSKDSTYSLSSTLTLSKADYEKHKVYACEVTHQGLSSPVTKSFNRGEC
heavy 2: EVQLVESGGGLVQPGGSLRLSCAASGFTFSDYYMTWVRQAPGKGLEWVAFIRNQARGYTSDHNPSVKGRFTISRDNAKNSLYLQMNSLRAEDTAVYYCARDRPSYYVLDYWGQGTTVTVSSASTKGPSVFPLAPCSRSTSESTAALGCLVKDYFPEPVTVSWNSGALTSGVHTFPAVLQSSGLYSLSSVVTVPSSNFGTQTYTCNVDHKPSNTKVDKTVERKCRVRCPRCPAPPVAGPSVFLFPPKPKDTLMISRTPEVTCVVVAVSHEDPEVQFNWYVDGVEVHNAKTKPREEQFNSTFRVVSVLTVVHQDWLNGKEYKCKVSNKGLPSSIEKTISKTKGQPREPQVYTLPPSREEMTKNQVSLTCLVKGFYPSDIAVEWESNGQPENNYKTTPPMLDSDGSFFLYSRLTVDKSRWQQGNVFSCSVMHEALHNHYTQKSLSLSPGK
light 2: DIQMTQSPSSLSASVGDRVTITCTSSQSLFNVRSQKNYLAWYQQKPGKAPKLLIYWASTRESGVPSRFSGSGSGTDFTLTISSLQPEDFATYYCKQSYDLFTFGGGTKVEIKRTVAAPSVFIFPPSDEQLKSGTASVVCLLNNFYPREAKVQWKVDNALQSGNSQESVTEQDSKDSTYSLSSTLTLSKADYEKHKVYACEVTHQGLSSPVTKSFNRGEC
notes: Chains 1-2: B7-H4 arm; chains 3-4: CD3 arm; IgG2 EEE/RRR; also called anti-B7-H4 clone 37D4
Kd [3]: 63 nM
koff [3]: 0.0349 s⁻¹
kon [3]: 554000 M⁻¹ s⁻¹
Kd [4]: 69 nM
koff [4]: 0.0349 s⁻¹
kon [4]: 506000 M⁻¹ s⁻¹
Kd [1]: 13.2 nM
koff [1]: 0.00553 s⁻¹
kon [1]: 420000 M⁻¹ s⁻¹
Kd [2]: 13.5 nM
koff [2]: 0.00506 s⁻¹
kon [2]: 374000 M⁻¹ s⁻¹
T cell mediated tumor cell killing EC50, HCC1954-Luc (human B7-H4 on cells): 284 nM
T cell mediated tumor cell killing, MDA-MB-468 (human B7-H4 on cells): 332
T cell mediated tumor cell killing, OVCAR3-Luc (human B7-H4 on cells): 79
T cell mediated tumor cell killing, T47D (human B7-H4 on cells): 566

B3: B7-H4 antibody 1113 (antibody, human IgG1, kappa, V domains shown)
VH: EVQLLESGGGLVQPGGSLRLSCAASGFTFSSYAMSWVRQAPGKGLEWVSAISGGGGSTYYADSVKGRFTISRDNSKNTLYLQMNSLRAEDTAVYYCARDIQWYGESTLFDYWGQGTLVTVSS
VL: DIQMTQSPSSLSASVGDRVTITCRASQSTRSWLAWYQQKPGKAPKLLIYKASSLEGGVPSRFSGSGSGTDFTLTISSLQPEDFATYYCQQYGSYSRTFGQGTKVEIKR
IC50 [5]: 1 nM

B4: B7-H4 antibody 0274 (antibody, human IgG1, kappa, V domains shown)
VH: EVQLLESGGGLVQPGGSLRLSCAASGFTFSSYAMSWVRQAPGKGLEWVSAISGGGGSTYYADSVKGRFTISRDNSKNTLYLQMNSLRAEDTAVYYCARDIQWFGESTLFDYWGQGTLVTVSS
VL: DIQMTQSPSSLSASVGDRVTITCRASQSIRSWLAWFQQKPGKAPKLLIYKASSLEGGVPSRFSGSGSGTDFTLTISSLQPEDFATYYCQQYNSYSRTFGQGTKVEIKR
IC50 [5]: 4.2 nM

B5: B7-H4 antibody 1116 (antibody, human IgG1, kappa, V domains shown)
VH: EVQLLESGGGLVQPGGSLRLSCAASGFTFSSYAMSWVRQAPGKGLEWVSAISGGGGSTYYADSVKGRFTISRDNSKNTLYLQMNSLRAEDTAVYYCARDIQWYGESTLFDYWGQGTLVTVSS
VL: DIQMTQSPSSLSASVGDRVTITCRASQSTRSWLAWHQQKPGKAPKLLIYKASSLESGVPSRFSGSGSGTDFTLTISSLQPEDFATYYCQQYGSYSRTFGQGTKVEIKR
IC50 [5]: 0.16 nM

B6: B7-H4 antibody 1115 (antibody, human IgG1, kappa, V domains shown)
VH: EVQLLESGGGLVQPGGSLRLSCAASGFTFSSYAMSWVRQAPGKGLEWVSAISGGGGSTYYADSVKGRFTISRDNSKNTLYLQMNSLRAEDTAVYYCARDIQWYGESTLFDYWGQGTLVTVSS
VL: DIQMTQSPSSLSASVGDRVTITCRASQSTRSWLAWYQQKPGKAPKLLIYKASSLESGVPSRFSGSGSGTDFTLTISSLQPEDFATYYCQQYGSYSRTFGQGTKVEIKR
IC50 [5]: 0.42 nM

B7: B7-H4 antibody 1117 (antibody, human IgG1, kappa, V domains shown)
VH: EVQLLESGGGLVQPGGSLRLSCAASGFTFSSYAMSWVRQAPGKGLEWVSAISGGGGSTYYADSVKGRFTISRDNSKNTLYLQMNSLRAEDTAVYYCARDIQWYGESTLFDYWGQGTLVTVSS
VL: DIQMTQSPSSLSASVGDRVTITCRASQSTRSWLAWLQQKPGKAPKLLIYKASSLESGVPSRFSGSGSGTDFTLTISSLQPEDFATYYCQQYGSYSRTFGQGTKVEIKR
IC50 [5]: 0.15 nM
